This series deals with MS2 coat protein. Put plainly: apparent KD of MS2 coat protein; designed switch direction (-1 OFF switch, 1 ON switch): 1; higher = weaker reporter binding. An outline of the steps:
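Transcription of designed RNA switches on Illumina chips was done by stalled E. coli RNA polymerase. SNAP-549-labelled MS2 coat protein was then titrated in doubling steps from 0.7 or 1.5 nM to 3 µM, with steps of 0.8–1.5 h at the lowest and 10–20 min at the highest concentration. The per-design median over clusters of curve-fitted normalised fluorescence is reported as apparent KD.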

[1] abbreviates: input ligand: microRNA oligo, concentration not stated.
The mark [2] stands for this setting: Eterna round: R95, input ligand: FMN 200 uM.
The mark [3] stands for this setting: Eterna round: R95, input ligand: microRNA oligo, concentration not stated.
The mark [4] stands for this setting: Eterna round: R95, input ligand: none.

For the sequence “UUAAUUAAUUAAUUAUACAUGAGGAUCACCCAUGUAAGUGAUCAGGAUAUCAGCUCGUUUAGAGCUGAGAAGGGAUACAUGAAU [SSNG3/12-A3] (Eterna round: R96, puzzle: Same State NG 3)”, the “apparent KD of MS2 coat protein” value runs as follows: (input ligand: FMN 200 uM) 0.0916 µM; under setting [1], 0.0859 µM; (input ligand: none) 0.143 µM.
The corresponding values for “UUAAUUUACUGAGGAUAUCGUGUCGACUGAGUUGACAUGAGGAUCACCCAUGUGAGAAGUGGUAUCGAGAAGGCAGUUUUCAUA [JR_SSNG2_Sub024] (Eterna round: R96, puzzle: Same State NG 2)” are 0.0173 µM, 0.059 µM and 0.0896 µM.
On to “UUAGGAUGUGAAGGAUAUGCCGAGUUAAGCCCAGCAGAAGGUUACAUACCUUUUGAUACAUGAGGAUCACCCAUGUUCUAAGAU [Eternabot solution 45] (Eterna round: R96, puzzle: Same State NG 1)”, for which the “apparent KD of MS2 coat protein” value under setting [1] turned out to be 0.0338 µM.
As to “UUAUUCUAUAUAGGAUAUUGAUGUAAUUUAUUUCAAGAAGGAUAUACAUGAGGAUCACCCAUGUUGGAUAGGGUUAGUUUGUUU [JR_SSNG1_Sub080] (Eterna round: R96, puzzle: Same State NG 1)”, the “apparent KD of MS2 coat protein” value under setting [1] came out at 0.0582 µM.
In the case of “UUCACCUUUUUUAACAUGAGGAUCACCCAUGUAUAUUGUACGUAGGAUAUCGAUGCUUUUUUUUUCGAGAAGGACGAUGUAAGU [JR_SSND3_Sub051] (Eterna round: R96, puzzle: Same State NG 3)”, the “apparent KD of MS2 coat protein” value by setting is: (input ligand: FMN 200 uM) 0.0386 µM; under setting [1], 0.0342 µM; (input ligand: none) 0.0375 µM.
The corresponding values for “UUGAAGAACUAAGGAUAUUGAAUACAUAUGUUUAACAUGAGGAUCACCCAUGUGGGUUGCGGUGUCGAGAAGGUAGAAUAAUAG [Mat - same State NG 2 - JL mod - D96] (Eterna round: R96, puzzle: Same State NG 2)” are 0.185 µM, 0.148 µM and 0.272 µM.
The corresponding values for “UUGAAGAAUUAAGGAUAUCGAGUACAUAUGUUUAACAUGAGGAUCACCCAUGUGGGUUGCGGUAUCGAGAAGGUAAAUUACAAG [JL SSNG2 1.43] (Eterna round: R96, puzzle: Same State NG 2)” are 0.0453 µM, 0.032 µM and 0.0539 µM.
The matching figures for “UUGAAGAAUUAAGGAUAUUGAGUACAUAUGUUUAACAUGAGGAUCACCCAUGUGGGUUGCGGUAUCGAGAAGGUAAAUUAAUAG [Mat - same State NG 2 - JL mod - D66] (Eterna round: R96, puzzle: Same State NG 2)”: 0.0944 µM, 0.126 µM and 0.157 µM.
As to “UUGAAGAAUUAAGGAUAUUGAUUACAUAUGUUUAACAUGAGGAUCACCCAUGUGGGUUGCGGUAUCGAGAAGGUAAAUUAAUAG [Mat - same State NG 2 - JL mod - D81] (Eterna round: R96, puzzle: Same State NG 2)”, the “apparent KD of MS2 coat protein” value was 0.168 µM (input ligand: FMN 200 uM), 0.181 µM under setting [1] and 0.174 µM (input ligand: none).
Take “UUGAAGACGGACAAGGAUAUGUCAAAGGAAACAUGAGGAUCACCCAUGUGGAGAUUGGAGAAGAAACAGAAGGUGUACGGAGAGA [JR_SS2_Sub008] (puzzle: Same State 2)”: the “apparent KD of MS2 coat protein” value under setting [2] was 0.0275 µM, the “apparent KD of MS2 coat protein” value under setting [3] is 0.0136 µM and the “apparent KD of MS2 coat protein” value under setting [4] is 0.0214 µM.
Take “UUGAAUAAUUAAGGAUAUCGAGUACAUAUGUUAAACAUGAGGAUCACCCAUGUGGGUUGCGGUAUCGAGAAGGUAAAAGACAAG [Mat - Same State NG 2 - JL mod - D59] (Eterna round: R96, puzzle: Same State NG 2)”: the “apparent KD of MS2 coat protein” value is, setting by setting: (input ligand: FMN 200 uM) 0.0312 µM; under setting [1], 0.0256 µM; (input ligand: none) 0.042 µM.
The corresponding values for “UUGAGAUGUACAGGAUAUGGUGAGGAUCACCCACUAGAAGGGUGCACAUGUGAAUCGGACAUGAGGAUCACCCAUGUAGGGCGU (Eterna round: R96, puzzle: Same State NG 1)” are 0.187 µM, 0.207 µM and 0.369 µM.
In the case of “UUGAGGAAUUAAGGAUAUUGAGUACAUAUGUUUAACAUGAGGAUCACCCAUGUGGGUUGCGGUAUCGAGAAGGUAAAUUACAAG [Mat - same State NG 2 - JL mod - D74] (Eterna round: R96, puzzle: Same State NG 2)”, the “apparent KD of MS2 coat protein” value under setting [1] turned out to be 0.0978 µM.
For the sequence “UUGAUAUGCGCAGGAUAUGGUGAGGAUCACCCACUAGAAGGGUGCACAUGAGAAUCGAACAUGAGGAUCACCCAUGUUCUGAGC (Eterna round: R96, puzzle: Same State NG 1)”, the “apparent KD of MS2 coat protein” value by setting is: (input ligand: FMN 200 uM) 0.831 µM; under setting [1], 0.295 µM; (input ligand: none) 1.03 µM.
For “UUGCGCUGUCGAGAGGAUAUGCGGUGUUGGACAUGAGGAUCACCCAUGUUAGCGAUUGCUUUACGGUAGAAGGCUCUUCAGCUGC [salish99_ss2_r3_098] (Eterna round: R96, puzzle: Same State 2)”, the “apparent KD of MS2 coat protein” value is, setting by setting: (input ligand: FMN 200 uM) 0.074 µM; under setting [1], 0.0501 µM; (input ligand: none) 0.0828 µM.
Consider “UUGCGCUGUCGAGAGGAUAUGCGGUGUUGGACAUGAGGAUCACCCAUGUUAGCGAUUGCUUUACGGUAGAAGGCUCUUCAGCUGC [salish99_ss2_r3_098] (puzzle: Same State 2)”, for which the “apparent KD of MS2 coat protein” value under setting [3] is 0.0635 µM.
For the sequence “UUGCGGAAUUAAGGAUAUUGAGUACAUAUGUUUAACAUGAGGAUCACCCAUGUGGGUUGCGGUAUCGAGAAGGUAACUUACUAC [salish99_SSNG2_r04_803] (Eterna round: R96, puzzle: Same State NG 2)”, the “apparent KD of MS2 coat protein” value turned out to be 0.11 µM (input ligand: FMN 200 uM), 0.0805 µM under setting [1] and 0.102 µM (input ligand: none).
The matching figures for “UUGCUCGUGUGAGGAUAUGCCGCCGUUUCGGCUGCAGAAGGUACUGUAAUACAUGAGGAUCACCCAUGUCUCUGUUGUUUCGUG [salish99_SSNG1_r04_934] (Eterna round: R96, puzzle: Same State NG 1)”: 0.0171 µM, 0.0164 µM and 0.0193 µM.
The corresponding values for “UUGCUCGUGUGAGGAUAUGCCGCCGUUUCGGCUGCAGAAGGUGCUACGUUACAUGAGGAUCACCCAUGUCUCUGUUGUUUCGUG [salish99_SSNG1_r04_941] (Eterna round: R96, puzzle: Same State NG 1)” are 0.0175 µM, 0.0197 µM and 0.0211 µM.
Take “UUGCUUCUCGUAGGAUAUGUAGGAUAUGCCUACAUGAGGAUCACCCAUGUUCGCAUGGCAGAAGGACAGAAGGACGAUCACCCU [pwkr ssNG2 2FMN + 1F5.8] (Eterna round: R96, puzzle: Same State NG 2)”: the “apparent KD of MS2 coat protein” value (input ligand: FMN 200 uM) amounted to 0.0435 µM, the “apparent KD of MS2 coat protein” value under setting [1] is 0.0881 µM and the “apparent KD of MS2 coat protein” value (input ligand: none) came out at 0.472 µM.
Regarding “UUGGGUUUGCGAGGAUAUCGUAUGUGAUUUGAACGAGAAGGCGCUAUUUAAAUUAUUUUAACAUAACAUGAGGAUCACCCAUGU [JR_SSNG1_Sub021] (Eterna round: R96, puzzle: Same State NG 1)”, under setting [1], the “apparent KD of MS2 coat protein” value was determined as 0.0142 µM.
Consider “UUGUGUUUGCGAGGAUAUCGUUUGUUGAAGUUACGAGAAGGCGCUCUCAUUACAUGAGGAUCACCCAUGUCUUUGAUGCAUGAU [JR_SSNG1_Sub071] (Eterna round: R96, puzzle: Same State NG 1)”, for which the “apparent KD of MS2 coat protein” value runs as follows: (input ligand: FMN 200 uM) 0.0547 µM; under setting [1], 0.0445 µM; (input ligand: none) 0.0682 µM.
“UUUACUUUCAUAGGAUAUCAUGCGAAAAUUGCGUGAGAAGGGUGCACACUGUCUUUCUCGGAGUACAUGAGGAUCACCCAUGUG [SameState NG1 #67] (Eterna round: R96, puzzle: Same State NG 1)”: the “apparent KD of MS2 coat protein” value is 0.0456 µM (input ligand: FMN 200 uM), 0.0368 µM under setting [1] and 0.0443 µM (input ligand: none).
On to “UUUAGAGGCGCAGGAUAUGGUGAGGAUCACCCACUAGAAGGGUGCACAUGAGAAUCGGACAUGAGGAUCACCCAUGUUUGGCGC (Eterna round: R96, puzzle: Same State NG 1)”, for which the “apparent KD of MS2 coat protein” value was found to be 0.805 µM (input ligand: FMN 200 uM), 0.554 µM under setting [1] and 0.816 µM (input ligand: none).
Regarding “UUUAGUUGCGCGCAGGAUAUGUAUUAAUAUACAUGAGGAUCACCCAUGUGAGAUCGAAUAGAUCUACAGAAGGGCGAAUCGCGAC [Laonerce - 26] (puzzle: Same State 2)”, the “apparent KD of MS2 coat protein” value turned out to be 0.0329 µM under setting [2], 0.168 µM under setting [3] and 0.611 µM under setting [4].
Consider “UUUAGUUGCGGGCAGGAUAUGUAUUAAAAUACAUGAGGAUCACCCAUGUGCGGGUAUAACACCCGACAGAAGGGCCAAUCGCGAC [Laonerce] (Eterna round: R96, puzzle: Same State 2)”, for which the “apparent KD of MS2 coat protein” value by setting is: (input ligand: FMN 200 uM) 0.0245 µM; under setting [1], 0.256 µM; (input ligand: none) 0.278 µM.
As for “UUUAGUUGCGGGCAGGAUAUGUAUUAAUAUACAUGAGGAUCACCCAUGUGCGGGUAUAACACCCGACAGAAGGGCCAAUCGCGAC [Laonerce - 5] (puzzle: Same State 2)”, the “apparent KD of MS2 coat protein” value under setting [2] amounted to 0.0283 µM, the “apparent KD of MS2 coat protein” value under setting [3] was determined as 0.302 µM and the “apparent KD of MS2 coat protein” value under setting [4] came to 0.389 µM.
“UUUGGGUGGCUGGAGGAUAUCCUUGUGGUUACAUGAGGAUCACCCAUGUGCCGCGCGGUGCGCGAGGAGAAGGCUGGCGGCCGUU (puzzle: Same State 2)”: the “apparent KD of MS2 coat protein” value came out at 0.026 µM under setting [2], 0.0795 µM under setting [3] and 0.151 µM under setting [4].

Values taken from the supplement of paper PMC9170038.
